Results taken from the DeepSol protein solubility set.

Assay: soluble on expression in E. coli; label from the status in PepcDB or PDB records

Sequence	soluble on expression in E. coli
MTEKKKRGLLSWLGFGDEEKSQTTATDTQTQDEPQSQADVEAVAIQTETALTETETETETETETETETETATVEPARIVEQEKPTESFFARLKRSLSRTKANIGAGFFGLFKGKKIDDDLFEELEEQLLIADVGMDTTSKIIANLTARASRQQLRDGEALYGLLKEEMAEILSQVEQPLVIDTEKKPYVILMVGVNGVGKTTTIGKLAKQFQAQGKKVMLAAGDTFRAAAVEQLQVWGERNQVPVIAQHTGADSASVIYDAIEAAKARGIDVVIADTAGRLQNKSNLMEELRKIVRVMKKIDDSAPHEIMLTLDAGTGQNAISQAKLFSDVAPITGITLTKLDGTAKGGVIFAIADQFQIPIRYIGVGEKIDDLRPFATQEFIDALFSREE	not soluble
LVQGPSLIGIHANEREDIETKKFVNWYLNTKVQWEENSIKTPAEYVADKASYLLPFKNRLNNTNSYNEFVKTAVSQFADKNVTKFAEPADFLSNKVRD	not soluble
MPNNISKSAIIKEGVIIGENVTIEDNVYIDYGCIIRDNVHIKKGSFIGARSILGEYLVDFYNDRINKKHPLIIGENALIRTENVIYGDTIIGDNFQTGHKVTIRENTKIGNNVKIGTLSDIQHHVYIGNYVNIHSNVFVGEKSIIKDFVWLFPHVVLTNDPTPPSNELLGVTIELFAVIAARSVVLPGIHINEDALVGAGAVVTKDVPKETVVVGNPAREICSIRKIKNKITGEQVYPWRYTFKRGMPWEETDYDTWIKNISIENLEHHHHHH	soluble
MREQSGINGHEQLATFIDRTDRVLNLVDGFMPETAWLSDIETLTYLHATVSTHRHQVRVPETPMHLDAILADQVLTGGLEPRLGQAHLRTLTIMGFPSQTWPGLLDDLNRLAFDYRWVTRAICLDKTDAAKVLGRIRRQWFAKRKSIAAMLKEIMTNEASALMDSDAANKAVDADMALQELGSDLVGAAYVTATVTIWNDDPRIADERLRLVEKVIQGRDFTCMVERVNAVEAWLGSLPGHVYANVRQPPVSTLNLAHMMPFSAVWAGPERDEHFDAPPLFLAKTEGSTPFRFSLHVGDVGHTLVVGPTGAGKSVLLALMALQFRRYARSQIFAFDFGGSIRAAALAMRGDWHDLGGSLAEDASEPVALQPLAGIDAEEERAWAAEWVAAILAREKVEITPDVKEHVWSALNNLASAPKSERTLTGLSVLLQSQALKQALKPYCVGGPWGRLLDAETERVGSADVLAFETEGLIGTGAAAAVLAYLFHRIEHRLDGRPTLLIVDEGWLALDDEGFASQLREWLKTLRKKNASVIFATQSLADIDGSAIAPAIIESCPTRLFLPNERALEPQIATIYERFGLNDRQIEILSRATPKRDYYCQSRRGNRLFELGLGEVALAFTAASSKGDQILIARLMAEHGPTGFAKAWLEARGVAWATDLIITPQKEKLPLEHHHHHH	soluble
ATEAHPAGGRLVLRPVRKSDAGLFAMYAGDRRVAEGTRGIPHPLPPGAAEAFVNRSTAEARSEDVWVMDGSASGLSEVLGVISLKRMDRDQSEIAYWVAPAFWNAGFASEAVRALIEANPQGSRTIFAEVFQDNPQSARVLTNCGFEYIGDAEAFSVARNARVPTWTY	not soluble
LQQFLDALASSPEKIEFETTMAVIEDNYDFTPAAFTNGNTQNDANENNGSCKIFAFGLLNALDKEATLACFGRFYREDVLLHPENNDHQNIRNFMVTGWEGIQFETSALTAK	not soluble
MNEFEKLLEESIASPEEFKRGQVVKGRVVKVAGDTVFVDIGYKTEAVISKEEVPEVQEGQEIEAVLVRFSPRIPNPVLSVKPLQEKKELEKLKEAYLNKSDVVGKIEKKVKGGFIVDFEGVKAFLPMSQAGKKLKEGQVLTFKVLDFKLDSKRPQIIVSHKAYLDEQREKRKQELLNTLKPGDVVEGKVVKIDPNKGVTLVIEGVLRAFLPKEELSWGRDKNPYNYTDVGETLKVKVKRVDKQKGFIIVSLRELKGNPWEKFLKEHKEGDVIEGRVVAVTPKGVVVEVMEGVEGFVPEEELAWEGKPEFKKGDLVKAKIMKIDPKRRRLILSIKRAQPRPWEIFLQKHPVGSKVKGKVIKIEGSRAIVELEDGVKGVIHRSDLSWTRPKRVEEVLKEGEEREFAVLGLEGKYVKLGLKQLTENPWEKVKEKYKVGDVVKLPVKELAPFGAFLEFPEGVEGLLPFSEVPRHIRIRKGQEYEVKIIDINPKEGKITFSINALYGEKPEEKEEKVEEVTTATTGGFKLGEILKKRWKL	not soluble
